Laboratory results published in IntAct's records for PubMed 18957540.

Molecular target: ntrk2_rat Ntrk2 (UniProt Q63604)
Sequence (Q63604 whole entry): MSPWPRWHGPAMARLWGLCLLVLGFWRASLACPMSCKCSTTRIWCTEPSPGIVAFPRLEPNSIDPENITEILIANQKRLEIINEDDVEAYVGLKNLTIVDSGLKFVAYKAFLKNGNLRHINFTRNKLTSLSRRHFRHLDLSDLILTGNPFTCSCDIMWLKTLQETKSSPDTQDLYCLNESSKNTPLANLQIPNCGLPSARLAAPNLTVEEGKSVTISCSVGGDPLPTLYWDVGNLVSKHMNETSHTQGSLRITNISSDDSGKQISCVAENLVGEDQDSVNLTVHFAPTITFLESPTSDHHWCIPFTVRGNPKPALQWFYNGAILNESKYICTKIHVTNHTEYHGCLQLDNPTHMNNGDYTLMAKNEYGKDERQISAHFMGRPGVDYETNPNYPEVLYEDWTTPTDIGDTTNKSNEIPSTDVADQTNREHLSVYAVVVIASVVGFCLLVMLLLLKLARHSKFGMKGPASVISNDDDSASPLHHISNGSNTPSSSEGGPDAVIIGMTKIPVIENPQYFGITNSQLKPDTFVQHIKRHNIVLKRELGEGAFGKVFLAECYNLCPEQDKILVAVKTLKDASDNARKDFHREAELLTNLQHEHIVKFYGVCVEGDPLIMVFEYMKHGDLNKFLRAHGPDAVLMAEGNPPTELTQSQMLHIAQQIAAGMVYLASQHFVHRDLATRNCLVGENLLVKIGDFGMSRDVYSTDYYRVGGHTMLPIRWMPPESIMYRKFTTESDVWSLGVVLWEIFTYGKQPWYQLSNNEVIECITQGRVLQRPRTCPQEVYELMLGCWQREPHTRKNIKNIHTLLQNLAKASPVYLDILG

## Protein farnesyltransferase/geranylgeranyltransferase type-1 subunit alpha (Rattus norvegicus (Rat)) (from UniProt Q04631) Y166A
  effect of a mutation on the interaction: decreasing interaction strength
